The record followed here is article PMC10476280.

Several values for one entry are separate records, joined by “and”; a condition that tells them apart may be missing. Equal entries are not always repeated.

In series [1] the test system is histone H3 (Saccharomyces cerevisiae (W303, SBY3 derivative)). As to the kind of experiment: single-molecule TIRFM endpoint colocalization. The conditions noted are these: yeast whole cell extract, single-molecule TIRFM on surface-tethered DNA, buffer, salt, pH and temperature not given in the material.
For series [2], the system named is Cse4(CENP-A)-GFP (Saccharomyces cerevisiae (W303, SBY3 derivative)). As to the kind of experiment: single-molecule TIRFM endpoint colocalization. Conditions: yeast whole cell extract, single-molecule TIRFM on surface-tethered DNA, buffer, salt, pH and temperature not given in the material.
Series [3] relates to Ndc10-mCherry (CBF3 component) (Saccharomyces cerevisiae (W303, SBY3 derivative)). Kind of series: single-molecule TIRFM endpoint colocalization. Conditions: WT extract; yeast whole cell extract, single-molecule TIRFM on surface-tethered DNA; buffer, salt, pH and temperature not given in the material.
For series [4], the system named is Scm3(HJURP) (Saccharomyces cerevisiae (W303, SBY3 derivative)). Kind of series: single-molecule TIRFM residence assay. The conditions noted are these: yeast whole cell extract, single-molecule TIRFM on surface-tethered DNA; buffer, salt, pH and temperature not given in the material.
Series [5] relates to Cse4(CENP-A)-GFP (Saccharomyces cerevisiae (W303, SBY3 derivative)). Kind of series: single-molecule TIRFM endpoint colocalization. The conditions noted are these: yeast whole cell extract, single-molecule TIRFM on surface-tethered DNA; buffer, salt, pH and temperature not given in the material.

Consider Widom-601-CDEIII hybrid, for which the results for the binding signal (% DNA colocalized) in series [1] (low level) and in series [2] were 4.1 and 3.1, respectively.
On to CEN9 DNA, for which the binding signal (% DNA colocalized) in series [2] (WT extract) was determined as 22.
Still for that read-out and setting: the figure for CEN7 DNA is 18.
For alpha-sat CEN DNA, in series [2], the binding signal (% DNA colocalized) was 1.7.
Consider CEN3 DNA (WT, ~750 bp), for which the binding signal (% DNA colocalized) in series [3] is 70; in series [1] (low level) it was 5.5; in series [2] (WT extract), 50; in series [2] it was 19.3; in series [5] it was 5 and 8. Besides, the binding signal (residences per DNA (45 min)) in series [4] amounted to 0.57.
Regarding Widom-601 DNA, the binding signal (% DNA colocalized) in series [1] turned out to be 7.1.
